Columns and labels:
[1] = target: human insulin receptor extracellular domain (HIR ECD) (human) (UniProt P06213); experiment: ELISA, HIR ECD plated; against the HIR Ab
[2] = target: T1, human insulin receptor extracellular domain (HIR ECD) (human, UniProt P06213 28-956, limits assumed); experiment: ELISA, recombinant HIR ECD plated, secondary antibody and alkaline phosphatase detection
T1 construct: extracellular domain
Description: The potency of the CHO-derived fusion protein was assessed with the HIR ECD binding ELISA. The affinity of the fusion protein for the HIR extracellular domain (ECD) was determined with an ELISA. Recombinant HIR ECD was plated on Nunc-Maxisorb 96 well dishes and the binding of the HIR Ab, or the HIR Ab-GLB1 fusion protein, to the HIR ECD was detected with a secondary antibody, followed by binding with an alkaline phosphatase detector reagent. […] The MW of the HIR Ab is 150 kDa, and the MW of the HIR Ab-fusion protein is 334 kDa.

| Molecule | binding activity lost [1] | EC50 [2] |
| --- | --- | --- |
| GUSB-HIR Ab fusion protein (GUSB fused to the amino terminus of the HIR Ab heavy chain) (from UniProt P08236 23-633) | > 95% |  |
| chimeric HIR Ab (human insulin receptor antibody) (antibody, human IgG1, kappa, V domains shown, Chimeric antibody against the extracellular domain of the human insulin receptor; human IgG1/kappa constant regions; also called HIRMAb; HIR MAb) VH: QVQLQQSGPELVKPGALVKISCKASGYTFTNYDIHWVKQRPGQGLEWIGWIYPGDGSTKYNEKFKGKATLTADKSSSTAYMHLSSLTSEKSAVYFCAREWAYWGQGTLVTVSA VL: DIQMTQSPSSLSASLGERVSLTCRASQDIGGNLYWLQQGPDGTIKRLIYATSSLDSGVPKRFSGSRSGSDYSLTISSLESEDFVDYYCLQYSSSPWTFGGGTKMEIKR |  | 0.037 mg/L |
